In the Immune Epitope Database (IEDB) one finds Kd data, which are given here for seven sequences.

The target of one test is HLA-B*51:01. Kind of test: IEDB peptide-MHC binding, purified MHC/competitive/fluorescence; filed as Kd, often an IC50 or EC50 that approximates it; ≥ and ≤ were set here for values at or beyond the usual limits of such assays.
A further test deals with HLA-B*35:01. The description is as above.
In a further test the target is HLA-B*07:02. The test is described as above.
The target in the next test is HLA-C*05:01. Kind of test: IEDB peptide-MHC binding, purified MHC/direct/fluorescence; filed as Kd, often an IC50 or EC50 that approximates it; ≥ and ≤ were set here for values at or beyond the usual limits of such assays.
The target of another test is HLA-B*08:01. The test can be described thus: IEDB peptide-MHC binding, purified MHC/competitive/fluorescence; filed as Kd, often an IC50 or EC50 that approximates it; ≥ and ≤ were set here for values at or beyond the usual limits of such assays. Conditions: source organism: Yersinia pestis Nepal516.
The target in a further test is HLA-A*29:02. Kind of test: IEDB peptide-MHC binding, purified MHC/direct/fluorescence; filed as Kd, often an IC50 or EC50 that approximates it; ≥ and ≤ were set here for values at or beyond the usual limits of such assays.
The next test concerns the target HLA-A*68:02. Described as above.
The target in a further test is HLA-B*27:05. The description is as above. The note with it: source organism: Isla Vista hantavirus.
Another test has as its target HLA-A*02:11. Described as above.
A further test addresses HLA-A*02:12. The test is described as above.
The target of another test is HLA-A*02:16. The description is as above.
The next test has as its target HLA-A*23:01. The description is as above.
In another test the target is HLA-A*03:01. The test is described as above.
In a further test the target is HLA-A*24:03. The test is described as above.
The next test concerns the target HLA-A*02:19. Described as above.
Another test concerns the target HLA-A*02:03. The description is as above.
Another test deals with HLA-B*27:03. Kind of test: IEDB peptide-MHC binding, purified MHC/competitive/fluorescence; filed as Kd, often an IC50 or EC50 that approximates it; ≥ and ≤ were set here for values at or beyond the usual limits of such assays.
In the next test the target is HLA-B*15:17. The test is described as above.
The target in another test is HLA-B*57:01. The test is described as above.
The target in another test is HLA-A*69:01. The description is as above. Conditions: source organism: Orthohantavirus puumalaense.
The target in a further test is HLA-A*26:01. The test is described as above.
The target in a further test is HLA-A*02:01. Described as above.
Another test deals with HLA-B*39:01. Described as above.
The target of test [1] is HLA-B*46:01. The description is as above.
The next test addresses HLA-B*18:01. Described as above.
Another test concerns the target HLA-B*15:01. The test is described as above.
The next test concerns the target HLA-A*01:01. Kind of test: IEDB peptide-MHC binding, purified MHC/direct/fluorescence; filed as Kd, often an IC50 or EC50 that approximates it; ≥ and ≤ were set here for values at or beyond the usual limits of such assays. Conditions: source organism: Ebola virus - Gabon (1994-1997).
In test [2] the target is HLA-B*46:01. The test is described as above. The note with it: source organism: West Nile virus.
[3] abbreviates: source organism: Yersinia pestis Nepal516.
[4] abbreviates: source organism: Orthohantavirus puumalaense.
Setting [5] is: source organism: Zaire ebolavirus.
The mark [6] stands for this setting: source organism: Influenza A virus (A/Leningrad/1954/1(H1N1)).
Where [7] appears, read: source organism: Bacillus anthracis str. A0488.

Consider EPLAVIASL, for which the Kd with HLA-B*51:01 (setting [3]) is not below 20 µM; with HLA-B*35:01 (setting [3]), 0.0017 µM; in the test with HLA-B*07:02 (setting [3]), not below 20 µM.
FPIKRISAV: the Kd with HLA-C*05:01 (setting [3]) was not below 20 µM; in the test with HLA-B*08:01, 0.0512 µM; with HLA-B*51:01 (setting [3]), 0.268 µM; with HLA-B*35:01 (setting [3]) it was 0.0004 µM.
In the case of LRYGNVLDV, the Kd in the test with HLA-A*29:02 (source organism: Choclo virus) is not below 20 µM; with HLA-A*68:02 (source organism: Choclo virus) it was not below 20 µM; with HLA-B*27:05, 0.951 µM; in the test with HLA-A*02:11 (source organism: Choclo virus), not below 20 µM; with HLA-A*02:12 (source organism: Choclo virus), not below 20 µM; with HLA-A*02:16 (source organism: Choclo virus), not below 20 µM. The Kd in the test with HLA-A*23:01 (source organism: Choclo virus), with HLA-A*03:01 (source organism: Choclo virus), with HLA-A*24:03 (source organism: Choclo virus), with HLA-A*02:19 (source organism: Choclo virus), with HLA-A*02:03 (source organism: Choclo virus) and in the test with HLA-B*27:03 (setting [4]) was not below 20 µM in each case. For the same sequence, the Kd with HLA-B*15:17 (setting [4]), with HLA-B*57:01 (setting [4]), in the test with HLA-A*69:01, with HLA-A*26:01 (setting [4]), with HLA-B*51:01 (setting [4]) and in the test with HLA-A*02:01 (setting [4]) was not below 20 µM each time. The Kd with HLA-B*39:01 (setting [4]), in the test with HLA-B*46:01 [1] (setting [4]), with HLA-B*18:01 (setting [4]) and with HLA-B*15:01 (setting [4]) was not below 20 µM each time.
In the case of LSDLCNFLV, the Kd is not below 20 µM with HLA-A*29:02 (setting [5]); 0.013 µM in the test with HLA-C*05:01 (setting [5]); not below 20 µM in the test with HLA-A*68:02 (setting [5]); not below 20 µM with HLA-A*02:11 (setting [5]); not below 20 µM in the test with HLA-A*02:12 (setting [5]); not below 20 µM in the test with HLA-A*02:16 (setting [5]). The Kd in the test with HLA-A*23:01 (setting [5]) was not below 20 µM; in the test with HLA-A*03:01 (setting [5]), not below 20 µM; in the test with HLA-A*24:03 (setting [5]), not below 20 µM; in the test with HLA-A*02:19 (setting [5]) it was not below 20 µM; with HLA-A*02:03 (setting [5]), not below 20 µM; in the test with HLA-A*01:01, 0.0671 µM. Besides, the dissociation constant Kd with HLA-B*27:03 (setting [5]), with HLA-B*15:17 (setting [5]), with HLA-B*57:01 (setting [5]), with HLA-A*26:01 (setting [5]), in the test with HLA-B*51:01 (setting [5]) and with HLA-A*02:01 (setting [5]) was not below 20 µM each time. For the same sequence, the Kd with HLA-B*39:01 (setting [5]), with HLA-B*46:01 [1] (setting [5]), with HLA-B*18:01 (setting [5]) and in the test with HLA-B*15:01 (setting [5]) was not below 20 µM throughout.
For LVSLGAISF, the Kd in the test with HLA-B*35:01 (setting [6]) was 0.29 µM; in the test with HLA-B*07:02 (setting [6]) it was not below 20 µM.
Consider MTVFSYKAF, for which the figures for the Kd with HLA-B*35:01 (setting [7]) and with HLA-B*15:01 (setting [7]) were 0.154 µM and 0.19 µM, respectively.
TVSPSAPTY: the Kd in the test with HLA-B*46:01 [2] was not below 20 µM; with HLA-B*35:01 (source organism: West Nile virus), not above 0.0001 µM.
